Results taken from article PMC4098866.

Target: laminin from mouse EHS (Engelbreth-Holm-Swarm) sarcoma (mouse)
Assay: ELISA

“RPSA-(210–295) (from UniProt P14206 210-295) (domain or fragment)” gave a Kd of 374 nM.
“RPSA-(225–295) (from UniProt P14206 225-295) (domain or fragment)” showed a Kd of 344 nM.
Substance “RPSA-(2–209) (from UniProt P14206 2-209) (domain or fragment)” has a Kd of 273 nM.
In the case of “RPSA-(2–220) (from UniProt P14206 2-220) (domain or fragment)”, the Kd is reported as 691 nM.
Work on “RPSA-(2–295) (from UniProt P14206 2-295) (natural protein)” yielded a Kd of 666 nM.
